Measured values reported in PMC4330348, “Identification of protein complexes that bind to histone H3 combinatorial modifications using super-SILAC and weighted correlation network analysis” (Nucleic Acids Research, 2015).

B1: Ezh2 (enzyme)
chain: not shown
notes: Ezh2, mouse; also called PRC2 complex member; source: endogenous, MPC11 nuclear and chromatin extract
B2: Suz12 (natural protein, mouse (endogenous in MPC11), UniProt Q80U70 1-741, looked up)
chain: MAPQKHGGGGGGGSGPSAGSGGGGFGGSAAAVAAAASGGKSGGGGCGGGGSYSASSSSAAAAAAAAGAAVLPVKKPKMEHVQADHELFLQAFEKPTQIYRFLRTRNLIAPIFLHRTLTYMSHRNSRTSIKRKTFKVDDMLSKVEKMKGEQESHSLSAHLQLTFTGFFHKNDKPSQNSENEQNSVTLEVLLVKVCHKKRKDVSCPIRQVPTGKKQVPLNPDLNQTKPGNFPSLAVSSNEFEPSNSHMVKSYSLLFRVTRPGRREFNGMINGETNENIDVSEELPARRKRNREDGEKTFVAQMTVFDKNRRLQLLDGEYEVAMQEMEECPISKKRATWETILDGKRLPPFETFSQGPTLQFTLRWTGETNDKSTAPVAKPLATRNSESLHQENKPGSVKPAQTIAVKETLTTELQTRKEKDNSNESRQKLRIFYQFLYNNNTRQQTEARDDLHCPWCTLNCRKLYSLLKHLKLCHSRFIFNYVYHPKGARIDVSINECYDGSYAGNPQDIHRQPGFAFSRNGPVKRTPITHILVCRPKRTKASMSEFLESEDGEVEQQRTYSSGHNRLYFHSDTCLPLRPQEMEVDSEDEKDPEWLREKTITQIEEFSDVNEGEKEVMKLWNLHVMKHGFIADNQMNHACMLFVENYGQKIIKKNLCRNFMLHLVSMHDFNLISIMSIDKAVTKLREMQQKLEKGESATPSNEEIAEEQNGTANGFSETNSKEKALETDGVSGVPKQSKKQKL
notes: Suz12, mouse; also called PRC2 complex member; source: endogenous, MPC11 nuclear and chromatin extract
B3: Eed (natural protein)
chain: not shown
notes: Eed, mouse; also called PRC2 complex member; source: endogenous, MPC11 nuclear and chromatin extract

These binders were tested against T1, histone H3 peptide aa1–20 trimethylated at K9 (H3K9me3) (UniProt P68431 2-21, trimethyl-lysine at K9; biotin attached to the C-terminus via a glycine-lysine linker) (assay: affinity purification with mass spectrometry; biotinylated histone H3 peptides on NeutrAvidin beads; pooled nuclear and MNase-solubilised chromatin extracts of SILAC-labelled MPC11 cells adjusted to 150 mM NaCl, 4°C; washes with 150 mM KCl, 0.2% Triton X-100; heavy pulldowns against a mixed light reference (super-SILAC); beads alone as control; two replicates). Conditions: one partner purified.
T1 construct: histone H3 N-terminal tail, aa1–20; glycine-lysine linker (told in words), carries the biotin; also called H3K9me3 modified H3 1–20 peptide; source: synthetic peptide (GL biochem)

Fold binding relative to the H3K27me3 peptide, ~3 fold:
B1
B2
B3
